According to patent CN117866904A (BEILAI PHARMACEUTICAL CO LTD, dated 2024):

B1: IL-17Nb secreted by G4-H10-MSC (G4-H10:Fc融合蛋白, VHH-(GGGGS)3-VHH-IgG4 Fc) (Fc fusion)
chain: QVQLVESGGGLVQPGGSLRLSCAASGEKLDYFAIGWFRQAPGKEREVVSCVTSSGSSTNYLSSVKDRFTISIDNAKNTVYLQMNSLKPEDTAIYYCASTILLCSDYISAFGTWGQGTQVTVASGGGGSGGGGSGGGGSEVQLVESGGGLVQPGGSLRLSCAASGFSIHIYAMGWYRQAPGKQRELVATITRGGVTNNADSVKGRFTISRDNAKNTAYLQMNSLKPEDTAVYYCNAGGTNGGYWGQGTQVTVSSAPEFLGGPSVFLFPPKPKDTLMISRTPEVTCVVVDVSQEDPEVQFNWYVDGVEVHNAKTKPREEQFNSTYRVVSVLTVLHQDWLNGKEYKCKVSNKGLPSSIEKTISKAKGQPREPQVYTLPPSQEEMTKNQVSLTCLVKGFYPSDIAVEWESNGQPENNYKTTPPVLDSDGSFFLYSRLTVDKSRWQEGNVFSCSVMHEALHNHYTQKSLSLSLGK
B2: 阳性对照抗体Ixekizumab (antibody, human IgG4 S228P, kappa, V domains shown)
VH: QVQLVQSGAEVKKPGSSVKVSCKASGYSFTDYHIHWVRQAPGQGLEWMGVINPMYGTTDYNQRFKGRVTITADESTSTAYMELSSLRSEDTAVYYCARYDYFTGTGVYWGQGTLVTVSS
VL: DIVMTQTPLSLSVTPGQPASISCRSSRSLVHSRGNTYLHWYLQKPGQSPQLLIYKVSNRFIGVPDRFSGSGSGTDFTLKISRVEAEDVGVYYCSQSTHLPFTFGQGTKLEIKR
notes: also called 阳性抗体

What was measured:
[1] = biological target: 生物素化的IL-17A of the ACRO Biosystems IL-17A[Biotinylated]:IL-17RA Inhibitor Screening ELISA Kit (EP-139) (UniProt Q16552); test: blocking ELISA kit: IL-17RA coated, biotinylated IL-17A; G4-H10-MSC supernatant diluted 5-fold; inhibition = [OD450 positive well - OD450 sample well]/OD450 positive well
[2] = biological target: T1, Biotin-IL-17A-His (UniProt Q16552 24-155, limits assumed, biotinylated (Biotin-IL-17A-His); site not stated); test: ELISA: antibody coated at 2 ug/mL; Biotin-IL-17A-His titrated from 10 ug/mL, 5-fold, 7 points; HRP-streptavidin; OD450
T1 construct: not shown: His tag
T1 sequence (looked up): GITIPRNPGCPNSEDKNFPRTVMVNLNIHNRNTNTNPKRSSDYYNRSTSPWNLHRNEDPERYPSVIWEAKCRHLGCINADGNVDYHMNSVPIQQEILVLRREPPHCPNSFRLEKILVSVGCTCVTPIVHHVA

[3] = biological target: T2, IL-17A重组蛋白(抗原), IL-17 antigen with a C-terminal 6×His tag, expressed in E. coli BL21 (human, UniProt Q16552 24-155, limits assumed); test: cell-based or functional assay
T2 sequence: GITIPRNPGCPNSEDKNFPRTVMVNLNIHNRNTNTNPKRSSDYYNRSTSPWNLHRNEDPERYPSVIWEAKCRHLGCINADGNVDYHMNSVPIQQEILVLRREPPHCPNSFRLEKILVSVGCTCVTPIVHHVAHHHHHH

| Binder | 结合抑制率 (IL-17A/IL17RA) [1] [%] | EC50 [2] [µg/mL] | IC50, 阻断Human IL-17A蛋白激活293F-IL-17RA-IL-17Rc-ACT1-NFκB-Luc报告基因细胞株 [3] [nM] |
| --- | --- | --- | --- |
| B1 | 60 | – | – |
| B2 | – | 10.1 | 2.23 |
